Assay results taken from paper PMC11414387.

Biological target: FBXO11 (UniProt Q86XK2)
Assay: co-IP of exogenous proteins
Settings: reference: wild type

binding against the reference (sites S33) | binding against the reference (sites S37) | Substance
lost |  | β-catenin (from UniProt P35222) S33A
 | lost | β-catenin (from UniProt P35222) S37A
